PMC4529489
Blank lines part the entries; values can stand above or below the substance they belong to.

Columns and labels:
[1] = target: Human Ubc13 R85S (human); experiment: ITC
[2] = target: Human Ubc13, wild type (human); experiment: ITC
[3] = target: Ube2V2 (Homo sapiens) (UniProt Q15819); details: cited from earlier work

- fold increase of Kd against WT Ubc13 [1]: > 30 times
Substance: Human Ube2V2 (natural protein)

- fold increase of Kd against WT Ube2V2 [2]: 4 times
Substance: Human Ube2V2 E20A (natural protein)

Substance: Ubc13 (from UniProt P61088)
- Kd [3]: 50 nM
